Assays:
[1] = tested on: ERRγ (ESRRG), mitochondrial and insulin gene expression; test: Quantitative RT-PCR gene expression in hiPSC-derived islet organoids/HILOs; assay type: cell-based, human; conditions: hiPSC-derived islet organoids, MCS or HILOs
Description: hiPSCs were cultured in matrigel-coated plates. Single cell suspensions were prepared using Accutase, washed in PBS, and collected by centrifugation (1000-1300 rpm for 5 min). Cells were re-suspended with 3D Kelco Gel Stem TeSR™ Base Medium in the presence of the ROCK inhibitor (10 μM Y-27632, StemCell) for 5 to 7 days until spheroids reached 50-100 μm diameter. The medium was then replaced with 0.015% Kelco gel containing 0.3% methylcellulose and supplemented with 100 ng/ml human Activin A (R&D Systems), 3 μM CHIR99021 (Axon or Selleckchem) in differentiation medium (S1) for 1 day, and then 100 ng/ml human Activin in differentiation medium (S1) for another 2 days (Stage 1, Definitive Endoderm). Subsequently, the medium was replaced with differentiation medium (S2) with 50 ng/ml FGF7 (R&D Systems) for 2 days, differentiation medium (S3) with 50 ng/ml FGF7, 0.25 μM SANT-1 (Sigma), 1 μM Retinoic Acid (Sigma), 100 nM LDN193189, 10 μM Alk5 inhibitor II and 200 nM of the ß-Amyloid Precursor Protein modulator TPB for 3 days, then 50 ng/ml FGF7, 0.25 μM SANT-1 (Sigma), 1 μM Retinoic Acid (Sigma), 100 nM LDN193189, 10 μM Alk5 inhibitor II and 100 nM of the ß-Amyloid Precursor Protein modulator TPB for 2 days. Subsequently the medium was replaced with differentiation medium (S4) with 0.25 μM SANT-1, 50 nM retinoic acid, 100 nM LDN193189, 10 μM Alk5 inhibitor II, 1 μM T3 for 3 days. Subsequently, the medium was replaced with differentiation medium (S5) with 100 nM LDN193189, 100 nM […] inhibitor XX (GSiXX, Millipore), 10 μM Alk5 inhibitor IL, 1 μM T3 for 7 days. Subsequently, the medium was replaced with differentiation media (S5) with 10 μM Trolox (Calbiochem), 2 μM R428 (Selleckchem), 1 mM N-acetyl cysteine, 10 μM Alk5 inhibitor II, 1 μM T3 for an additional 7 to 20 days. […]
Total RNA was extracted using TRIzol reagent (Invitrogen) and RNeasy KIT (Qiagen). […] Real time quantitative RT-PCR (qPCR) was performed using SYBR Green (Bio-Rad).

[2] = tested on: insulin-expressing cells of HILOs; test: Mitochondrial content (MitoTracker) and insulin-GFP by flow cytometry; assay type: cell-based, human
Source text: FIGS. 8A-8H provide images, graphs, a schematic and a diagram showing results related to WNT4 mediated insulin-GFP expression and WNT4-driven metabolic maturation. FIG. 8A presents representative images of mitochondrial content, indicated by MitoTracker (red) staining, in PBS and WNT4 treated HILOs (scale bar, 100 μm). FIG. 8B presents graphs of flow cytometry quantification of insulin expression (GFP) and mitochondrial content in HILOs treated with recombinant human WNT4 (rhWNT4), WNT5A (rhWNT5A), or conditioned medium (CM) from control or WNT5A overexpressing fibroblasts (n=3). Error bars represent SEM. *p<0.05. FIG. 8C presents a gene ontology of transcriptional changes induced by WNT4 treatment (100 ng/ml WNT4 from day26 to day33) in HILOs. […] Error bars represent SEM. *p<0.05. FIG. 8E presents a Venn diagram showing overlap between WNT4-induced increases in chromatin accessibility in GFP^+ cells and increases in HILO gene expression (upper panel), and gene ontology pathways enriched in the intersection gene set. […] For FIGS. 8G and 8H, postnatal islets (day P11-14) from WT and β cell specific ERRγKO mice were cultured with or without rhWNT4 (100 ng/ml) for >5 days.

B1: WNT5a: recombinant human Wnt5a protein (protein, UniProt P41221 62-380, looked up)
Protein Wnt-5a: IIGAQPLCSQLAGLSQGQKKLCHLYQDHMQYIGEGAKTGIKECQYQFRHRRWNCSTVDNTSVFGRVMQIGSRETAFTYAVSAAGVVNAMSRACREGELSTCGCSRAARPKDLPRDWLWGGCGDNIDYGYRFAKEFVDARERERIHAKGSYESARILMNLHNNEAGRRTVYNLADVACKCHGVSGSCSLKTCWLQLADFRKVGDALKEKYDSAAAMRLNSRGKLVQVNSRFNSPTTQDLVYIDPSPDYCVRNESTGSLGTQGRLCNKTSEGMDGCELMCCGRGYDQFKTVQTERCHCKFHWCCYVKCKKCTEIVDQFVCK
expression of ERRγ (ESRRG) and mitochondrial genes [1]: induced
proportion of insulin expressing cells ([2]; GFP sorting, HILOs with and without WNT treatment): not affected
mitochondrial content / number ([2]; MitoTracker, HILOs / insulin-expressing cells): increased the mitochondrial content
